Source: article PMC11373624, “Development and preclinical characterization of a novel radiotheranostic EphA2-targeting bicyclic peptide” (Theranostics, 2024)
Numbered stars: 1 amine (or outer) side, 2 acyl side, 3 side chain; on linkers, the order of the positions; unused ones are H or OH. Bridge positions count the residues as written; N and C are the ends. Square brackets hold non-standard residues; d marks the D form. Peptide text beside a SMILES is read from it. * marks the point of attachment. DOTA = O=C(O)CN1CCN(CC(=O)O)CCN(CC(=O)*)CCN(CC(=O)O)CC1; TATA = O=C(CC[*:1])N1CN(C(=O)CC[*:2])CN(C(=O)CC[*:3])C1; Hyp = O=C(O)[C@@H]1C[C@@H](O)CN1; hArg = N=C(N)NCCCC[C@H](N)C(=O)O; Cba = N[C@@H](CC1CCC1)C(=O)O; βAla = NCCC(=O)O; Sar = CNCC(=O)O

Key:
[1] = tested on: HT1080 tumor xenograft; assay: in vivo; conditions: mouse
Excerpt: (§1) For the cut and count biodistribution study of [^177Lu]Lu-BCY18469 the HT1080 xenograft model was used. […] (n = 3 mice per time point). Thereafter, mice were dissected, and organs of interest harvested, which included: blood, heart, lung, spleen, liver, kidneys, muscle (quadriceps), intestine, brain, tail, bone (femur) and grafted tumor.

[2] = in vivo; conditions: mouse; for tissue to tissue ratio at 1 h / tissue to tissue ratio at 2 h / tissue to tissue ratio at 6 h / tissue to tissue ratio at 24 h: iv, 150 pmol
Excerpt: as §1

[3] = tested on: HT1080 cells; assay: Cell surface binding and internalization assay; type: cell-based, human
Procedure: To assess internalization and specificity, HT1080 cells (10^5 cells/well) were seeded in a 24-well plate coated with poly-L-lysine one day before the experiment. […] To determine specific uptake, 'cold' (non-radiolabeled) BCY18469 was added to half of the wells at an excess concentration of 10 µM/well or, alternatively, the cells were kept at 4 °C during the experiment. Following the incubation, the cells were thoroughly rinsed with cold PBS (3 x 1 mL). Subsequently, surface bound radioactivity was removed by washing with 50 mM glycine (pH 2.8, 2 x 500 µL). Finally, the internalized fraction was determined by lysing the cells with 0.5 M NaOH (500 µL). All fractions were collected and measured using a gamma counter (Perkin Elmer Wizard2, Germany). All counts were standardized to the initial activity, and specific surface binding as well as specific internalization were calculated by subtracting the non-specific binding values obtained from the wells treated with an excess of 'cold' compound. Results were calculated and expressed as %AA/10^5 cells (% applied activity/10^5 cells).

[4] = total radioactivity, Tumor-to-blood ratio
[5] = total radioactivity, Tumor-to-heart ratio
[6] = total radioactivity, Tumor-to-intestine ratio
[7] = total radioactivity, Tumor-to-kidneys ratio
[8] = total radioactivity, Tumor-to-liver ratio
[9] = total radioactivity, Tumor-to-lung ratio
[10] = total radioactivity, Tumor-to-muscle ratio
[11] = total radioactivity, Tumor-to-spleen ratio
[12] = total radioactivity, Tumor uptake
[13] = 4°C, block with 10 µM non-labeled compound, listed as 177Lu-BCY18469
[14] = 37°C, 45 min, 30 nM, listed as 177Lu-BCY18469

CC(C)C[C@@H]1NC(=O)[C@@H]2CSCCC(=O)N3CN(CN(C3)C(=O)CCSC[C@H](NC(=O)[C@H](CC(=O)O)NC(=O)[C@H](CCCCNC(=N)N)NC(=O)[C@H](C)NC(=O)CN(C)C(=O)CN(C)C(=O)CN(C)C(=O)CN(C)C(=O)CN(C)C(=O)CN(C)C(=O)CN(C)C(=O)CN(C)C(=O)CN(C)C(=O)CN(C)C(=O)CCNC(=O)CN3CCN(CC(=O)O)CCN(CC(=O)O)CCN(CC(=O)O)CC3)C(=O)N3C[C@H](O)C[C@H]3C(=O)N[C@@H](CC3CCC3)C(=O)N[C@@H](C(C)C)C(=O)N[C@@H](CC(N)=O)C(=O)N3CCC[C@H]3C(=O)N[C@@H](CC(C)C)C(=O)N2)C(=O)CCSC[C@@H](C(N)=O)NC(=O)[C@H](CCCCNC(=N)N)NC(=O)[C@H](Cc2c[nH]c3ccccc23)NC(=O)[C@@H](CC(=O)O)NC(=O)[C@@H]2CCCN2C(=O)[C@H](Cc2c[nH]cn2)NC1=O [[177Lu]Lu-BCY18469, metal not drawn] ({DOTA-βAla}-[Sar][Sar][Sar][Sar][Sar][Sar][Sar][Sar][Sar][Sar]A[hArg]DC[Hyp][Cba]VNPLCLHP[dD]W[hArg]C-NH2; linker 14-21-28 via TATA)
Brain uptake ([1]; 1 h): 0 %ID/g
Brain uptake ([1]; 24 h): 0 %ID/g
Tumor-to-muscle ratio ([1]; iv, 150 pmol, 24 h): 88
tissue uptake at 1 h ([2]; Blood uptake): 0.2 %ID/g
tissue uptake at 2 h ([2]; Blood uptake): 0.03 %ID/g
tissue uptake at 6 h ([2]; Blood uptake): 0.02 %ID/g
tissue uptake at 24 h ([2]; Blood uptake): 0.01 %ID/g
tissue uptake at 1 h ([2]; Bone uptake): 0.3 %ID/g
tissue uptake at 2 h ([2]; Bone uptake): 0.21 %ID/g
tissue uptake at 6 h ([2]; Bone uptake): 0.56 %ID/g
tissue uptake at 24 h ([2]; Bone uptake): 0.44 %ID/g
tissue uptake at 2 h ([2]; Brain uptake): 0.01 %ID/g
tissue uptake at 6 h ([2]; Brain uptake): 0.01 %ID/g
tissue uptake at 1 h ([2]; Heart uptake): 0.1 %ID/g
tissue uptake at 2 h ([2]; Heart uptake): 0.03 %ID/g
tissue uptake at 6 h ([2]; Heart uptake): 0.05 %ID/g
tissue uptake at 24 h ([2]; Heart uptake): 0.03 %ID/g
tissue uptake at 1 h ([2]; Intestine uptake): 0.34 %ID/g
tissue uptake at 2 h ([2]; Intestine uptake): 0.16 %ID/g
tissue uptake at 6 h ([2]; Intestine uptake): 0.15 %ID/g
tissue uptake at 24 h ([2]; Intestine uptake): 0.1 %ID/g
tissue uptake at 1 h ([2]; Kidneys uptake): 65.3 %ID/g
tissue uptake at 2 h ([2]; Kidneys uptake): 47.2 %ID/g
tissue uptake at 6 h ([2]; Kidneys uptake): 62.6 %ID/g
tissue uptake at 1 h ([2]; Liver uptake): 0.25 %ID/g
tissue uptake at 2 h ([2]; Liver uptake): 0.15 %ID/g
tissue uptake at 6 h ([2]; Liver uptake): 0.6 %ID/g
tissue uptake at 24 h ([2]; Liver uptake): 0.53 %ID/g
tissue uptake at 1 h ([2]; Lung uptake): 0.7 %ID/g
tissue uptake at 2 h ([2]; Lung uptake): 0.19 %ID/g
tissue uptake at 6 h ([2]; Lung uptake): 0.28 %ID/g
tissue uptake at 24 h ([2]; Lung uptake): 0.13 %ID/g
tissue uptake at 1 h ([2]; Muscle uptake): 0.06 %ID/g
tissue uptake at 2 h ([2]; Muscle uptake): 0.02 %ID/g
tissue uptake at 6 h ([2]; Muscle uptake): 0.03 %ID/g
tissue uptake at 24 h ([2]; Muscle uptake): 0.02 %ID/g
tissue uptake at 1 h ([2]; Spleen uptake): 0.6 %ID/g
tissue uptake at 2 h ([2]; Spleen uptake): 0.16 %ID/g
tissue uptake at 6 h ([2]; Spleen uptake): 0.4 %ID/g
tissue uptake at 24 h ([2]; Spleen uptake): 0.31 %ID/g
tissue uptake at 1 h ([2]; Tail uptake): 1.8 %ID/g
tissue uptake at 2 h ([2]; Tail uptake): 0.7 %ID/g
tissue uptake at 6 h ([2]; Tail uptake): 0.83 %ID/g
tissue uptake at 24 h ([2]; Tail uptake): 0.38 %ID/g
tissue uptake at 2 h ([2]; Tumor uptake): 9.99 %ID/g
tissue to tissue ratio at 1 h [2, 4]: 97.5
tissue to tissue ratio at 2 h [2, 4]: 333
tissue to tissue ratio at 6 h [2, 4]: 278
tissue to tissue ratio at 24 h [2, 4]: 177
tissue to tissue ratio at 1 h [2, 5]: 195
tissue to tissue ratio at 2 h [2, 5]: 333
tissue to tissue ratio at 6 h [2, 5]: 111
tissue to tissue ratio at 24 h [2, 5]: 59
tissue to tissue ratio at 1 h [2, 6]: 57.4
tissue to tissue ratio at 2 h [2, 6]: 62.4
tissue to tissue ratio at 6 h [2, 6]: 37.1
tissue to tissue ratio at 24 h [2, 6]: 17.7
tissue to tissue ratio at 1 h [2, 7]: 0.3
tissue to tissue ratio at 2 h [2, 7]: 0.21
tissue to tissue ratio at 6 h [2, 7]: 0.09
tissue to tissue ratio at 24 h [2, 7]: 0.03
tissue to tissue ratio at 1 h [2, 8]: 78
tissue to tissue ratio at 2 h [2, 8]: 66.6
tissue to tissue ratio at 6 h [2, 8]: 9.27
tissue to tissue ratio at 24 h [2, 8]: 3.34
tissue to tissue ratio at 1 h [2, 9]: 27.9
tissue to tissue ratio at 2 h [2, 9]: 52.6
tissue to tissue ratio at 6 h [2, 9]: 19.9
tissue to tissue ratio at 24 h [2, 9]: 13.6
tissue to tissue ratio at 1 h [2, 10]: 325
tissue to tissue ratio at 2 h [2, 10]: 500
tissue to tissue ratio at 6 h [2, 10]: 185
tissue to tissue ratio at 24 h [2, 10]: 88.5
tissue to tissue ratio at 1 h [2, 11]: 32.5
tissue to tissue ratio at 2 h [2, 11]: 62.4
tissue to tissue ratio at 6 h [2, 11]: 13.9
tissue to tissue ratio at 24 h [2, 11]: 5.71
tissue uptake at 24 h ([2]; total radioactivity, Kidneys uptake): 54.9 ± 17.1 %ID/g
tissue uptake ([2]; total radioactivity, Non-target organs uptake): ≤ 1 %ID/g
tissue uptake at 1 h [2, 12]: 19.5 ± 3.5 %ID/g
tissue uptake at 6 h [2, 12]: 5.56 ± 1.24 %ID/g
tissue uptake at 24 h [2, 12]: 1.77 ± 0.51 %ID/g
Cell Surface B 4°C [3, 13]: 0.05 ± 0.01 %AA/10^5 cells
Internalization B 4°C [3, 13]: 0.01 ± 0.01 %AA/10^5 cells
Cell Surface 4°C ([3]; 4°C, listed as 177Lu-BCY18469): 0.51 ± 0.01 %AA/10^5 cells
Internalization 4°C ([3]; 4°C, listed as 177Lu-BCY18469): 0.06 ± 0.01 %AA/10^5 cells
Cell Surface [3, 14]: 0.62 ± 0.03 %AA/10^5 cells
Internalization [3, 14]: 0.13 ± 0.01 %AA/10^5 cells
Cell Surface B ([3]; 37°C, block with 10 µM non-labeled compound): 0.02 ± 0.01 %AA/10^5 cells
Internalization B ([3]; 37°C, block with 10 µM non-labeled compound, listed as 177Lu-BCY18469): 0.01 ± 0.01 %AA/10^5 cells
